Test [1] concerns the target rat collagen type I (rat) (UniProt P02454). The test is described as follows: dried collagen assay, chelate conjugate.
The target of test [2] is human collagen type I (human) (UniProt P02452). The test is described as follows: dried collagen assay, chelate conjugate.
Chain of human collagen type I (human) (P02452 162-1218 limits assumed, chain 1 of 2): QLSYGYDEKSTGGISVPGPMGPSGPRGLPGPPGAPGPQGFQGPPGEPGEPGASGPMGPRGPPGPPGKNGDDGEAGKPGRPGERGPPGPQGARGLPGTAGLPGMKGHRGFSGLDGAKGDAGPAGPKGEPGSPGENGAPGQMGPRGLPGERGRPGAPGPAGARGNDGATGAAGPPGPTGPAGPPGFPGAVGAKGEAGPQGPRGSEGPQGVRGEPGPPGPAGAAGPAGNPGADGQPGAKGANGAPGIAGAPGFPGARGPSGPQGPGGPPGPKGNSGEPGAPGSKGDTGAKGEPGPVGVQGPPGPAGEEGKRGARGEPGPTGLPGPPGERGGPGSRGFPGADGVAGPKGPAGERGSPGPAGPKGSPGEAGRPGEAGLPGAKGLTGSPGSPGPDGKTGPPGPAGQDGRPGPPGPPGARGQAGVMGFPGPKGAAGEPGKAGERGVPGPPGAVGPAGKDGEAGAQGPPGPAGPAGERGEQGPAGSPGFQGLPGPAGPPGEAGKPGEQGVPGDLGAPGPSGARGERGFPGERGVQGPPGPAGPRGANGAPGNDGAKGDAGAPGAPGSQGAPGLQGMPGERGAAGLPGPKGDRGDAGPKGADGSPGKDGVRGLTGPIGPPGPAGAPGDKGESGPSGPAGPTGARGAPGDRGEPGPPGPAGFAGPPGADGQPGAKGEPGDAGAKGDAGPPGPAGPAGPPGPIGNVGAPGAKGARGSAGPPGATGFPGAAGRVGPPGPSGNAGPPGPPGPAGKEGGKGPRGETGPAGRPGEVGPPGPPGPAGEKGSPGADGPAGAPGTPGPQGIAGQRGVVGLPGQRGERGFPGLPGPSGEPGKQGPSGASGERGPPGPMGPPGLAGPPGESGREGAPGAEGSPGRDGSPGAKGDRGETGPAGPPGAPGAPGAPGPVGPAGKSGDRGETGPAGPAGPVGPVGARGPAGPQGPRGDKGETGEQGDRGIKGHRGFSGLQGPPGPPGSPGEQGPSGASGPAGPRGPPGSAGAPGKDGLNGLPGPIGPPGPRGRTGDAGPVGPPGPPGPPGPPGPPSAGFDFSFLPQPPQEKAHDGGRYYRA
Chain of human collagen type I (human) (P08123 80-1119 limits assumed, chain 2 of 2, further chain): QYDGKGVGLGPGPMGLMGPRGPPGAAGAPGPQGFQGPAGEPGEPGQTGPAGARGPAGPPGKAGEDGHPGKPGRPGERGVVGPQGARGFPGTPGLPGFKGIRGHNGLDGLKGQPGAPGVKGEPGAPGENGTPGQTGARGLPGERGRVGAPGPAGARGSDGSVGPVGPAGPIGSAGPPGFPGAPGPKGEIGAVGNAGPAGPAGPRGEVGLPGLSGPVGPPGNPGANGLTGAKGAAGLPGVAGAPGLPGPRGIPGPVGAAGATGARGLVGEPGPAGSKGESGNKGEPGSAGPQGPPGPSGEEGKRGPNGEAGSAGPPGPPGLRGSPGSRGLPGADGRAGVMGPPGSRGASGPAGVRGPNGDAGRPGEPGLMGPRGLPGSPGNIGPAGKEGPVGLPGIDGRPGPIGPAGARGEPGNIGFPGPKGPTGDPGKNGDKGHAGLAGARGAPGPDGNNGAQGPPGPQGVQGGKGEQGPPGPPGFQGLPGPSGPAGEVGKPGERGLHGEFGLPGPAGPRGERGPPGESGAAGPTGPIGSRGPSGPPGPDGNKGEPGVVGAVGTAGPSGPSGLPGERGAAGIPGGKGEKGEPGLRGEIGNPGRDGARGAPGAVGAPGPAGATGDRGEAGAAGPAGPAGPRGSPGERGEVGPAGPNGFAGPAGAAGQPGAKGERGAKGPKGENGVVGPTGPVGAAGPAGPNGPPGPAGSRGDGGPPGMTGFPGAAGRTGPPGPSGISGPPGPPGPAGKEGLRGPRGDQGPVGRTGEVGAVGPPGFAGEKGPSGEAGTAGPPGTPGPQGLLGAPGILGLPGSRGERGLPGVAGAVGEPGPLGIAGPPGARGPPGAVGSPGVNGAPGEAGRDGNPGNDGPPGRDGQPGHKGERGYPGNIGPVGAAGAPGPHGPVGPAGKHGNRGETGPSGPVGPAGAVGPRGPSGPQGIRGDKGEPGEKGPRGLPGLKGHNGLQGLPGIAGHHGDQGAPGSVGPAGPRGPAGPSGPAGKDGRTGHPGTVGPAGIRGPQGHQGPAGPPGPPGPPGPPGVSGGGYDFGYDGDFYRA

Chain of rat collagen type I (rat) (P02454 152-1207, chain 1 of 2): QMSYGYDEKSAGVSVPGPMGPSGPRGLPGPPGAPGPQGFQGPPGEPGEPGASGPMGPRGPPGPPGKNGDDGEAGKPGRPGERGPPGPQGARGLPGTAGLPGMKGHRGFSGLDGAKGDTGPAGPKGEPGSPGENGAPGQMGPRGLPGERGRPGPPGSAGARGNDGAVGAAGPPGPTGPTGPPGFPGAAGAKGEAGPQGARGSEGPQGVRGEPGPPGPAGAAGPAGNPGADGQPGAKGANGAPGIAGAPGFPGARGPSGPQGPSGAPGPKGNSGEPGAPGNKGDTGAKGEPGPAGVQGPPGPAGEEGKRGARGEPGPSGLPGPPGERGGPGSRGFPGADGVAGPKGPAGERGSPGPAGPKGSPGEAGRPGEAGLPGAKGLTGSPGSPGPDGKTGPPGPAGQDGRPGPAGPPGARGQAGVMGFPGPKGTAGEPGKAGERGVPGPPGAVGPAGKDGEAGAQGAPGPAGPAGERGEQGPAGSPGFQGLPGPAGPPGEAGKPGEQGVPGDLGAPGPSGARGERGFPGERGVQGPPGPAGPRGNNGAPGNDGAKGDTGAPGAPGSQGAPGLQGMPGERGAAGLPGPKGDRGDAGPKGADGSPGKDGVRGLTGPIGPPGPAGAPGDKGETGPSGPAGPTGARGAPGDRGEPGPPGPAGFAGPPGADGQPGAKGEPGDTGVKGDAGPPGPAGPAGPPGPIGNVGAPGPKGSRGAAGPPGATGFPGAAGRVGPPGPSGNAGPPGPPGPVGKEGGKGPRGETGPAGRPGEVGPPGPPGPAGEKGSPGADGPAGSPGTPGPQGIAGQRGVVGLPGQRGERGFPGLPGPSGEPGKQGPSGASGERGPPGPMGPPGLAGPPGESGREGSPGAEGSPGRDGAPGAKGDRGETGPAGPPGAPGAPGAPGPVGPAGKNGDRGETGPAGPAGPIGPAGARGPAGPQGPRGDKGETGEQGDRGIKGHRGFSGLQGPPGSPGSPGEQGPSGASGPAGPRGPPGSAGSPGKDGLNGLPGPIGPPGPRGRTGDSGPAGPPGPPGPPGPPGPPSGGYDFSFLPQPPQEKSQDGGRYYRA
Chain of rat collagen type I (rat) (P02466 86-1125, chain 2 of 2, further chain): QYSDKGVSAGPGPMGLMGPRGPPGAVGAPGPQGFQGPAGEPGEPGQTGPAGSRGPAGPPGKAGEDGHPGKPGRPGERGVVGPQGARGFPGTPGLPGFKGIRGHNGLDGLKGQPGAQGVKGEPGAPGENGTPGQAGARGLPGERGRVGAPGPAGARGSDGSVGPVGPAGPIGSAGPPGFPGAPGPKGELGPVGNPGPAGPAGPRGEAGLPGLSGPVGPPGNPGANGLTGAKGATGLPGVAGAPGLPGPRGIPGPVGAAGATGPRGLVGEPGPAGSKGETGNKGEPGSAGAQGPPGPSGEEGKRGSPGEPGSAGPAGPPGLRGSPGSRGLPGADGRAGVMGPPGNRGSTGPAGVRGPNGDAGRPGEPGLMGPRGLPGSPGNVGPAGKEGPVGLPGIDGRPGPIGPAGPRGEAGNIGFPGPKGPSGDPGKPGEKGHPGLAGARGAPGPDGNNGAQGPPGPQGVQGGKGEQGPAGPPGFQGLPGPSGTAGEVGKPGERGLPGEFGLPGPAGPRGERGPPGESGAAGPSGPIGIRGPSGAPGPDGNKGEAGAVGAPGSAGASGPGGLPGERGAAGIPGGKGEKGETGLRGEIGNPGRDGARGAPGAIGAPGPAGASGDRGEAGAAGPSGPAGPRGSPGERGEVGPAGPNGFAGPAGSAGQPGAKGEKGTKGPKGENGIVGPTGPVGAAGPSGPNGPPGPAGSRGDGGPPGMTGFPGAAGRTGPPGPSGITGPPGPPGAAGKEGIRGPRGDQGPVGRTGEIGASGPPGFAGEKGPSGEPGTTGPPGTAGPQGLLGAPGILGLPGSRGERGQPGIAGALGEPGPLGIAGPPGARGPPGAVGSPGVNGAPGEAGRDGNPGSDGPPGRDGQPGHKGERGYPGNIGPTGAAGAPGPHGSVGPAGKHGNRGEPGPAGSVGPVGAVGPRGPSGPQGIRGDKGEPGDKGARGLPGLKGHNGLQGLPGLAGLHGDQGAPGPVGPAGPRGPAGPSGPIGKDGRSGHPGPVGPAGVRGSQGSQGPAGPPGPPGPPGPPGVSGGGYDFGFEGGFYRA

Regarding “Glu-DTPA-Gd-PEG(20)-G-Q-W-T-C-S-G-D-E-Y-T-W-H-C-N-Y-e (peptide)”, in test [1], the % Binding Collagen I, Rat is 5%. In test [2], this substance returned a % Binding Collagen I, Human of 28%.
